Laboratory results taken from patent publication US20220064316A1 (published 2022).

Assays:
[1] = biological target: T1, BCMA-Fc antigen (R&D Systems) (UniProt Q02223 1-54); test: flow cytometry; BCMA-Fc staining of CAR-transduced JNL cells
T1 construct: also called BCMA fc fusion protein (R&D Systems, cat #193-BC-050); recombinant BCMA-Fc; not shown: Fc portion of the bought fusion protein
T1 sequence (looked up): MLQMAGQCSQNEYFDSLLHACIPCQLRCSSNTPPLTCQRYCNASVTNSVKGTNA
Method: Jurkat-NFAT-luciferase (JNL) cells transduced with BCMA CAR constructs were evaluated for activation in response to BCMA-expressing target cell lines. Small-scale viral supernatant samples were generated in HEK293T cells for transduction of JNL cells. On Day 3 following transduction, BCMA CAR-transduced JNL cells were incubated with target cells at an effector-to-target (E:T) ratio of 6:1. Target cell lines were: K562-BCMA (engineered to stably express BCMA), K562 (parental line), and BCMA positive multiple myeloma cell lines, NCI-H929 and RPMI 8226. JNL activation was measured using Bright-Glo substrate (Promega) on Day 4. CAR expression on transduced JNL was assessed on Day 7 with BCMA-Fc antigen and Biotin-Protein L reagent (Table 21).

[2] = biological target: T2, human BCMA (B-cell maturation antigen) on cells (human, UniProt Q02223 1-184); test: cell-based or functional assay
T2 sequence (looked up): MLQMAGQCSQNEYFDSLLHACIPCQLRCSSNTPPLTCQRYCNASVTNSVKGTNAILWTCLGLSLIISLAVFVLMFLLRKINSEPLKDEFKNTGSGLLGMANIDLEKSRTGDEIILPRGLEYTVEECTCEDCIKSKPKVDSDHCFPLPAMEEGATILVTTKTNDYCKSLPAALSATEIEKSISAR

Binder | % CAR+ (BCMA-Fc detection) [1] [%] | JNL binding assay, ratio to K562; K562-BCMA [2] [ratio] | JNL binding assay, ratio to K562; NCI-H929 [2] [ratio] | JNL binding assay, ratio to K562; RPMI 8226 [2] [ratio] | Proliferation CD3, ratio to no target; K562-BCMA [2] [ratio] | Proliferation CD3, ratio to no target; KMS11-luc [2] [ratio] | Proliferation CD3, ratio to no target; NCI-H929 [2] [ratio] | Proliferation CD3, ratio to no target; RPMI 8226 [2] [ratio] | Proliferation CD4, ratio to no target; K562-BCMA [2] [ratio] | Proliferation CD4, ratio to no target; KMS11-luc [2] [ratio] | Proliferation CD4, ratio to no target; NCI-H929 [2] [ratio] | Proliferation CD4, ratio to no target; RPMI 8226 [2] [ratio] | Proliferation CD8, ratio to no target; K562-BCMA [2] [ratio] | Proliferation CD8, ratio to no target; KMS11-luc [2] [ratio] | Proliferation CD8, ratio to no target; NCI-H929 [2] [ratio] | Proliferation CD8, ratio to no target; RPMI 8226 [2] [ratio]
BCMA-11 CAR (139110) (other, also called UG65-93FB) QVQLVQSGGGLVKPGGSLRLSCAASGFTFSDYYMSWIRQAPGKGLEWVSYISSSGNTIYYADSVKGRFTISRDNAKNSLYLQMNSLRAEDTAVYYCARSTMVREDYWGQGTLVTVSSASGGGGSGGRASGGGGSDIVLTQSPLSLPVTLGQPASISCKSSESLVHNSGKTYLNWFHQRPGQSPRRLIYEVSNRDSGVPDRFTGSGSGTDFTLKISRVEAEDVGVYYCMQGTHWPGTFGQGTKLEIKTTTPAPRPPTPAPTIASQPLSLRPEACRPAAGGAVHTRGLDFACDIYIWAPLAGTCGVLLLSLVITLYCKRGRKKLLYIFKQPFMRPVQTTQEEDGCSCRFPEEEEGGCELRVKFSRSADAPAYKQGQNQLYNELNLGRREEYDVLDKRRGRDPEMGGKPRRKNPQEGLYNELQKDKMAEAYSEIGMKGERRRGKGHDGLYQGLSTATKDTYDALHMQALPPR | 42.7 | – | – | – | – | – | – | – | – | – | – | – | – | – | – | –
BCMA-2 CAR (139101) (other, also called UR96-08PA) QVQLQESGGGLVQPGGSLRLSCAASGFTFSSDAMTWVRQAPGKGLEWVSVISGSGGTTYYADSVKGRFTISRDNSKNTLYLQMNSLRAEDTAVYYCAKLDSSGYYYARGPRYWGQGTLVTVSSASGGGGSGGRASGGGGSDIQLTQSPSSLSASVGDRVTITCRASQSISSYLNWYQQKPGKAPKLLIYGASTLASGVPARFSGSGSGTHFTLTINSLQSEDSATYYCQQSYKRASFGQGTKVEIKTTTPAPRPPTPAPTIASQPLSLRPEACRPAAGGAVHTRGLDFACDIYIWAPLAGTCGVLLLSLVITLYCKRGRKKLLYIFKQPFMRPVQTTQEEDGCSCRFPEEEEGGCELRVKFSRSADAPAYKQGQNQLYNELNLGRREEYDVLDKRRGRDPEMGGKPRRKNPQEGLYNELQKDKMAEAYSEIGMKGERRRGKGHDGLYQGLSTATKDTYDALHMQALPPR | 32 | – | – | – | – | – | – | – | – | – | – | – | – | – | – | –
BCMA-3 CAR (139102) (other, Chimeric antigen receptor; also called KR98-03KA) QVQLVQSGAEVKKPGASVKVSCKASGYTFSNYGITWVRQAPGQGLEWMGWISAYNGNTNYAQKFQGRVTMTRNTSISTAYMELSSLRSEDTAVYYCARGPYYYYMDVWGKGTMVTVSSASGGGGSGGRASGGGGSEIVMTQSPLSLPVTPGEPASISCRSSQSLLYSNGYNYVDWYLQKPGQSPQLLIYLGSNRASGVPDRFSGSGSGTDFKLQISRVEAEDVGIYYCMQGRQFPYSFGQGTKVEIKTTTPAPRPPTPAPTIASQPLSLRPEACRPAAGGAVHTRGLDFACDIYIWAPLAGTCGVLLLSLVITLYCKRGRKKLLYIFKQPFMRPVQTTQEEDGCSCRFPEEEEGGCELRVKFSRSADAPAYKQGQNQLYNELNLGRREEYDVLDKRRGRDPEMGGKPRRKNPQEGLYNELQKDKMAEAYSEIGMKGERRRGKGHDGLYQGLSTATKDTYDALHMQALPPR | 0 | – | – | – | – | – | – | – | – | – | – | – | – | – | – | –
BCMA-4NP tool CAR (other) QVQLVQSGAEVKKPGSSVKVSCKASGGTFSNYWMHWVRQAPGQGLEWMGATYRGHSDTYYNQKFKGRVTITADKSTSTAYMELSSLRSEDTAVYYCARGAIYNGYDVLDNWGQGTLVTVSSGGGGSGGGGSGGGGSGGGGSDIQMTQSPSSLSASVGDRVTITCSASQDISNYLNWYQQKPGKAPKLLIYYTSNLHSGVPSRFSGSGSGTDFTLTISSLQPEDFATYYCQQYRKLPWTFGQGTKLEIKR | 28.3 | – | – | – | – | – | – | – | – | – | – | – | – | – | – | –
BCMA-4 CAR (139103) (other, also called B4; JF32-78IB) QVQLVESGGGLVQPGRSLRLSCAASGFTFSNYAMSWVRQAPGKGLGWVSGISRSGENTYYADSVKGRFTISRDNSKNTLYLQMNSLRDEDTAVYYCARSPAHYYGGMDVWGQGTTVTVSSASGGGGSGGRASGGGGSDIVLTQSPGTLSLSPGERATLSCRASQSISSSFLAWYQQKPGQAPRLLIYGASRRATGIPDRFSGSGSGTDFTLTISRLEPEDSAVYYCQQYHSSPSWTFGQGTKLEIKTTTPAPRPPTPAPTIASQPLSLRPEACRPAAGGAVHTRGLDFACDIYIWAPLAGTCGVLLLSLVITLYCKRGRKKLLYIFKQPFMRPVQTTQEEDGCSCRFPEEEEGGCELRVKFSRSADAPAYKQGQNQLYNELNLGRREEYDVLDKRRGRDPEMGGKPRRKNPQEGLYNELQKDKMAEAYSEIGMKGERRRGKGHDGLYQGLSTATKDTYDALHMQALPPR | 49.5 | 4.47 | 3.31 | 6.25 | 7.37 | 8.63 | 8.64 | 8.14 | 9.21 | 8.6 | 9.86 | 10.1 | 5.66 | 8.74 | 7.42 | 6.19
BCMA-5 CAR (139104) (other, also called AR99-08FA) EVQLLETGGGLVQPGGSLRLSCAVSGFALSNHGMSWVRRAPGKGLEWVSGIVYSGSTYYAASVKGRFTISRDNSRNTLYLQMNSLRPEDTAIYYCSAHGGESDVWGQGTTVTVSSASGGGGSGGRASGGGGSEIVLTQSPATLSVSPGESATLSCRASQSVSSNLAWYQQKPGQAPRLLIYGASTRASGIPDRFSGSGSGTDFTLTISSLQAEDVAVYYCQQYGSSLTFGGGTKVEIKTTTPAPRPPTPAPTIASQPLSLRPEACRPAAGGAVHTRGLDFACDIYIWAPLAGTCGVLLLSLVITLYCKRGRKKLLYIFKQPFMRPVQTTQEEDGCSCRFPEEEEGGCELRVKFSRSADAPAYKQGQNQLYNELNLGRREEYDVLDKRRGRDPEMGGKPRRKNPQEGLYNELQKDKMAEAYSEIGMKGERRRGKGHDGLYQGLSTATKDTYDALHMQALPPR | 28.9 | 2.34 | 2.34 | 2.4 | 1.62 | 1.61 | 1.72 | 1.73 | 2.19 | 1.9 | 2.23 | 2.15 | 0.99 | 1.27 | 1.11 | 1.25
